Patent publication US20090264360A1

Molecular target: lamprey GnRH receptor (sea lamprey (Petromyzon marinus))
Experiment: cell-based or functional assay

## lamprey GnRH-III (from UniProt P30948 1-10) (peptide)
  fold difference of EC50 against lamprey GnRH-I (IP and cAMP) (fold lower than lamprey GnRH-I): 40 to 50
